Legend:
human TNF-α = human TNF-α (human, UniProt P01375 77-233); assay: cell-based or functional assay
human TNF-β = target: T1, human TNF-β (human, UniProt P01374 35-205, limits assumed); assay: Western blotting, reducing conditions
T1 sequence (looked up): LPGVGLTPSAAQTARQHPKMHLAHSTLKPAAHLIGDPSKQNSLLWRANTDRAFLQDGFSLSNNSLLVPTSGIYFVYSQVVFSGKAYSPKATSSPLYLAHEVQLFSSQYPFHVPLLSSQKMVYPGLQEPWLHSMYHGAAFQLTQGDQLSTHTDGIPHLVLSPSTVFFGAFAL

murine TNF-α = target: T2, murine TNF-α (murine, UniProt P06804 80-235); assay: Western blotting, reducing conditions
T2 sequence (looked up): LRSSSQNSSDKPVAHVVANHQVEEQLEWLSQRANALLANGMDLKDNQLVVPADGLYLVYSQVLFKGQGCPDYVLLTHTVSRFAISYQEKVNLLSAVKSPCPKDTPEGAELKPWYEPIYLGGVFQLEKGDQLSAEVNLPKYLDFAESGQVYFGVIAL

Cynomolgus monkey TNF-α = Cynomolgus monkey TNF-α (Cynomolgus monkey, UniProt P79337 77-233); assay: ELISA
Chain of Cynomolgus monkey TNF-α (P79337 77-233 limits assumed): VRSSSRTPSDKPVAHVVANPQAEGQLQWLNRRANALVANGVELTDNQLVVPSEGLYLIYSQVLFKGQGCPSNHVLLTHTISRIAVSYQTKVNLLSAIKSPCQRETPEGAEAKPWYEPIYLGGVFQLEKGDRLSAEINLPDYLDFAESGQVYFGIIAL

murine IL-6 = target: T3, murine IL-6 (murine, UniProt P08505 25-211); assay: Western blotting
T3 sequence (looked up): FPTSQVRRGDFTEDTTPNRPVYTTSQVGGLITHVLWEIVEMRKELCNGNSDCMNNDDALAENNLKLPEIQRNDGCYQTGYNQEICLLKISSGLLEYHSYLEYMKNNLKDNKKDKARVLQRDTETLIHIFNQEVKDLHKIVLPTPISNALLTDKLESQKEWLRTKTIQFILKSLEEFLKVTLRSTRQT

human IL-6 = human IL-6 (human, UniProt P05231 30-212); assay: cell-based or functional assay

Chain of human TNF-α (P01375 77-233 limits assumed): as the sequence (P79337 77-233 limits assumed) above, with V37L, T44R, N72T, L138R counted along it

B1: 4C9 mouse anti-human TNF-α monoclonal antibody (antibody, mouse IgG1, V domains shown)
VH: VQLQESGPSLVKPSQTLSLTCSVTGDSITSGFWNWIRKFPGNKFEYMGYISYSGRTYYNPSLKSRLSITRDTSKNQFYLQLNSVTAEDTATYYCARDANYVLDYWGQGTTLTVSS
VL: DIQLTQSPSSLAMSVGQKVTMNCKSSQSLLNSSTQKNYLAWFQQKPGQSPKLLVYFASARESGVPDRFIGSGSGTDFTLTISSVQAEDLADYFCQQHYRTPFTFGSGTKLEIKR
notes: Murine IgG1/kappa; 4C9D11 and 4C9D11G11 are subclones of 4C9; also called 4C9D11; 4C9D11G11
EC50, inhibition of TNF-α-induced cytotoxicity, L929 cells, MTS (human TNF-α): 0.0112 µg/mL
binding result (human TNF-β): no binding
binding result (murine TNF-α): no binding

B2: chimeric 4C9 antibody (chimeric anti-TNF-α clone 6A9) (antibody, V domains shown)
VH: VQLQESGPSLVKPSQTLSLTCSVTGDSITSGFWNWIRKFPGNKFEYMGYISYSGRTYYNPSLKSRLSITRDTSKNQFYLQLNSVTAEDTATYYCARDANYVLDYWGQGTTLTVSS
VL: DIQLTQSPSSLAMSVGQKVTMNCKSSQSLLNSSTQKNYLAWFQQKPGQSPKLLVYFASARESGVPDRFIGSGSGTDFTLTISSVQAEDLADYFCQQHYRTPFTFGSGTKLEIKR
notes: also called cIgG-anti-TNF-α
binding result (Cynomolgus monkey TNF-α): binds

B3: 2-3B2 mouse monoclonal antibody against human IL-6 (antibody, V domains shown)
VH: VKLQESGGGLVQPGGSRKLSCAASGFTFSRFGMHWVRQAPEKGLEWVAYIGRGSSTIYYADTVKGRFTISRDNPKNTLFLQMTSLRSEDTAMYYCARSNWDGAMDYWGQGTSVTVSS
VL: DIQLTQSPASLSASVGETVTITCRASGNIHNFLAWYQQKQGKSPQLLVYNAETLADGVPSRFSGSGSGTQYSLKINSLQPEDFGSYYCQHFWSTPWTFGGGTKLEIKR
notes: Murine IgG1/kappa hybridoma antibody; also called 2-3B2 anti-IL-6 antibody
binding result (murine IL-6): no binding
potency for inhibiting IL-6 induced phosphorylation of STAT3, relative to 4-4E6 (human IL-6): ~100 fold

Reference: patent publication US20150125450A1 (published 2015)
